In patent US7049122B2, “Mutant-type lipases and applications thereof” (priority 2001, dated 2006):

Tests used:
[1] = target: Staphylococcus epidermidis strain 9 lipase variant H648K (His-648 to Lys), SEQ ID NO:16 (Staphylococcus epidermidis, UniProt P0C0R3, H648K); experiment: Kinetic analysis of hydrolysis of p-nitrophenyl butyrate (p-nitrophenol formation), mutant H648K; assay type: biochemical; details: H648K vs wild-type, substrate p-nitrophenyl butyrate
Procedure: (§1) The purified enzymes and substrate p-nitrophenyl butyrate (2.64 mM predissolved in 2.1% Triton X-100) were mixed in 50 mM phosphate buffer (pH 6.0). The reactions were carried out at 37° C. for 15 min and were terminated by the addition of acetone (1:1, v/v) (Kazlauskas 1994). The absorption values of the reaction product (p-nitrophenol) at 346 nm were determined, and the hydrolase activity (a general indicator for the lipolytic activity) of the purified enzymes was obtained, after converting the absorption values into mmols of p-nitrophenol quantity (at pH 6.0) curve. The molar extinction coefficient of p-nitrophenol under this condition was 2988[…].

S. hyicus lipase = details: Chang et al. (1996); cited from earlier work
[2] = target: Staphylococcus epidermidis strain 9 lipase variant M419A (Met-419 to Ala), SEQ ID NO:15 (Staphylococcus epidermidis, UniProt P0C0R3, M419A); experiment: Kinetic analysis of hydrolysis of p-nitrophenyl butyrate (p-nitrophenol formation), mutant M419A; assay type: biochemical; details: M419A vs wild-type; substrate p-nitrophenyl butyrate
Source text: (§2) The mutant-type lipase is preferably obtained from site-directed mutagenesis of a lipase isolated from Staphylococcus, most favorably Staphylococcus epidermidis. The mutant lipase from Stapylococcus epidermidis that has an alanine residue replacing the methionine residue which immediately follows the serine residue of the Ser-His-Asp catalytic triad has the amino acid sequence of SEQ ID NO: 15. The mutant lipase from Stapylococcus epidermidis that has an isoleucine residue replacing the valine residue which immediately follows the histidine residue of the Ser-His-Asp catalytic triad has the amino acid sequence of SEQ ID NO: 17.
as §1
(§3) The mutation apparently affected the enzyme's ability to stabilize the transition state more than it affected the substrate binding ability of the enzyme. […] The kcat/Km ratio is the pertinent parameter to determine kinetic efficiency of an enzyme.

[3] = target: Staphylococcus epidermidis strain 9 lipase variant V649I (Val-649 to Ile), SEQ ID NO:17 (Staphylococcus epidermidis, UniProt P0C0R3, V649I); experiment: Kinetic analysis of hydrolysis of p-nitrophenyl butyrate (p-nitrophenol formation), mutant V649I; assay type: biochemical; details: V649I vs wild-type; substrate p-nitrophenyl butyrate
Source text: as §2, §1

[4] = target: Staphylococcus epidermidis strain 9 lipase, wild-type (recombinant 43 kDa "Lys-303" lipase, C-terminal His-tag), SEQ ID NO:14 (Staphylococcus epidermidis, UniProt P0C0R3); experiment: Kinetic analysis of hydrolysis of p-nitrophenyl butyrate (p-nitrophenol formation), wild-type lipase; assay type: biochemical; details: substrate p-nitrophenyl butyrate, 50 mM phosphate buffer (pH 6.0), 37° C., means ± standard error, three experiments
Source text: (§4) A fragment of the gehC gene (designated “Lys-303” gene), which encoded an amino acid sequence corresponding to that of the S. epidermidis lipase following proteolytic cleavage between Ala-302 and Lys-303, was synthesized by polymerase chain reaction (PCR) using a chromosomal DNA from a S. epidermidis isolated from a patient in Chang-Gung Hospital (Keelung, Taiwan) as template. The gehC gene is a Staphylococcus epidermidis strain 9 lipase gene. The gene consisted of a single open reading frame of 2064 nucleotides, which encoded a protein of 688 amino acids with a predicted molecular mass of 77 kDa. The Lys-303 gene (SEQ ID NO:13) encoded an active lipase (SEQ ID NO:14), which was about 43 kDa in molecular weight. The Lys-303-encoded lipase is also known as the “43 kDa” or “wild-type” lipase. Two primers: an N-terminal primer of SEQ ID NO:1 (5′-[…]-3′) and a C-terminal primer of SEQ ID NO:2 (5′-[…]-3′) were used in this synthetic process.
as §1, §3

[5] = test system: CCCC(=O)Oc1ccc([N+](=O)[O-])cc1; experiment: Kinetic analysis of hydrolysis of p-nitrophenyl butyrate (p-nitrophenol formation), mutant H648K; assay type: biochemical, Staphylococcus epidermidis; details: other: H648K, substrate p-nitrophenyl butyrate, 50 mM phosphate buffer (pH 6.0), 37° C., means ± standard error, three experiments
Procedure: as §1

[6] = test system: CCCC(=O)Oc1ccc([N+](=O)[O-])cc1; experiment: Kinetic analysis of hydrolysis of p-nitrophenyl butyrate (p-nitrophenol formation), mutant M419A; assay type: biochemical, Staphylococcus epidermidis; details: other: M419A, substrate p-nitrophenyl butyrate, 50 mM phosphate buffer (pH 6.0), 37° C., means ± standard error, three experiments
Source text: as §2, §1, §3

[7] = test system: CCCC(=O)Oc1ccc([N+](=O)[O-])cc1; experiment: Kinetic analysis of hydrolysis of p-nitrophenyl butyrate (p-nitrophenol formation), mutant V649I; assay type: biochemical, Staphylococcus epidermidis; details: other: V649I, substrate p-nitrophenyl butyrate, 50 mM phosphate buffer (pH 6.0), 37° C., means ± standard error, three experiments
Source text: as §2, §1

[8] = test system: CCCC(=O)Oc1ccc([N+](=O)[O-])cc1; experiment: Kinetic analysis of hydrolysis of p-nitrophenyl butyrate (p-nitrophenol formation), wild-type lipase; assay type: biochemical, Staphylococcus epidermidis; details: other: wild-type, substrate p-nitrophenyl butyrate, 50 mM phosphate buffer (pH 6.0), 37° C., means ± standard error, three experiments
Source text: as §4, §1, §3

Sequence of Staphylococcus epidermidis strain 9 lipase variant V649I (Val-649 to Ile), SEQ ID NO:17 (P0C0R3 303-688 V649I): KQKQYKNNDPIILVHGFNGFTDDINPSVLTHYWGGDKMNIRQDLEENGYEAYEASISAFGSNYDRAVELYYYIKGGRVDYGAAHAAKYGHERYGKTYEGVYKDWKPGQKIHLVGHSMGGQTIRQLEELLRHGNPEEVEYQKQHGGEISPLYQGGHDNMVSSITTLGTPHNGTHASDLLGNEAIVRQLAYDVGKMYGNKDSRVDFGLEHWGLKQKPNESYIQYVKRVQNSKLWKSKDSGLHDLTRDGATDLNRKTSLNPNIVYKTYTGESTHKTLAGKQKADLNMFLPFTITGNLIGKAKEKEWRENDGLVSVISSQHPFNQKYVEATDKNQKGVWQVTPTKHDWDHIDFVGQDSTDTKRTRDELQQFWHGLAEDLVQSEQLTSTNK
Sequence of Staphylococcus epidermidis strain 9 lipase variant H648K (His-648 to Lys), SEQ ID NO:16 (P0C0R3 303-688 H648K): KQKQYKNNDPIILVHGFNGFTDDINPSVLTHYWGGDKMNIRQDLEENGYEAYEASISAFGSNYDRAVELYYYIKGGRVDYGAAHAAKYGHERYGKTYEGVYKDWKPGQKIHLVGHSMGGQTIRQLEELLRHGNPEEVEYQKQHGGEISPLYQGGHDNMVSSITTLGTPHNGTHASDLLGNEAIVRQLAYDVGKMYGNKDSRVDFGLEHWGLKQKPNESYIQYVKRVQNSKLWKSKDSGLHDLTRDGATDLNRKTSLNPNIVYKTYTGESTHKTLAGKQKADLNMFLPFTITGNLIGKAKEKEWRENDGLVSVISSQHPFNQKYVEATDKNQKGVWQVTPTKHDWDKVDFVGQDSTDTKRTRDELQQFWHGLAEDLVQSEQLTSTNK
Sequence of Staphylococcus epidermidis strain 9 lipase variant M419A (Met-419 to Ala), SEQ ID NO:15 (P0C0R3 303-688 M419A): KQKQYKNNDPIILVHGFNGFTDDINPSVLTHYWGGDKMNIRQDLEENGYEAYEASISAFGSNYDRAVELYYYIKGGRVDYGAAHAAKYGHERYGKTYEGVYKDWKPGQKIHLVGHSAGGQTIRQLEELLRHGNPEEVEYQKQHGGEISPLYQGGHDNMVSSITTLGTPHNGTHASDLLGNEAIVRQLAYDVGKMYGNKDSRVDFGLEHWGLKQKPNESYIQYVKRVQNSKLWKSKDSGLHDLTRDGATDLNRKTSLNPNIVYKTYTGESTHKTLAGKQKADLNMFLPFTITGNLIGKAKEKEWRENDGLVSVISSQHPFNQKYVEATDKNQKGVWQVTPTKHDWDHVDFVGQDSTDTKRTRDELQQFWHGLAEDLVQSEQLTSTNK
Sequence of Staphylococcus epidermidis strain 9 lipase, wild-type (recombinant 43 kDa "Lys-303" lipase, C-terminal His-tag), SEQ ID NO:14 (P0C0R3 303-688): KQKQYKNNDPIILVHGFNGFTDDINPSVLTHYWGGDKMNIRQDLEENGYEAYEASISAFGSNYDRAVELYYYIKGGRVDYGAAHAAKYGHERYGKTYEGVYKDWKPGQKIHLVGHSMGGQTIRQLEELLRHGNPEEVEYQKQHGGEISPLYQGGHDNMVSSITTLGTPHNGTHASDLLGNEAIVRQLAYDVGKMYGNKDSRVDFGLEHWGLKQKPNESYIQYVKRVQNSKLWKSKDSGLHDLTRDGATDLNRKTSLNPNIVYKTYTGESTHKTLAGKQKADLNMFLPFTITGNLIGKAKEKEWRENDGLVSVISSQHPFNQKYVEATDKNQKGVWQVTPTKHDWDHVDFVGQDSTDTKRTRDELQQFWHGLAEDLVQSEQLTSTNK

CCCC(=O)Oc1ccc([N+](=O)[O-])cc1 [p-nitrophenyl butyrate]
kcat compared with the wild-type enzyme (decreased to) [1]: 10.4% | change in the Km compared with the wild-type enzyme ([1]; in words): little change | Km (S. hyicus lipase): 2070 µM | kcat (S. hyicus lipase): 0.53 s⁻¹ | kcat/Km (S. hyicus lipase): 257 M⁻¹ s⁻¹ | increase in catalytic efficiency (kcat/Km) in comparison with the wild-type enzyme [2]: 2.0 fold | increase in kcat in comparison with the wild-type enzyme [3]: 13.4 fold | increase in the kcat/Km in comparison with the wild-type enzyme [3]: 4.0 fold | kcat [4]: 25.1 s⁻¹

Staphylococcus epidermidis strain 9 lipase variant H648K (His-648 to Lys), SEQ ID NO:16 (Staphylococcus epidermidis; H648K)
Km [5]: 950 ± 350 µM | kcat [5]: 2.6 ± 0.9 s⁻¹ | kcat/Km [5]: 2700 M⁻¹ s⁻¹

Staphylococcus epidermidis strain 9 lipase variant M419A (Met-419 to Ala), SEQ ID NO:15 (Staphylococcus epidermidis; M419A)
Km [6]: 3970 ± 120 µM | kcat [6]: 218 ± 14 s⁻¹ | kcat/Km [6]: 54800 M⁻¹ s⁻¹

Staphylococcus epidermidis strain 9 lipase variant V649I (Val-649 to Ile), SEQ ID NO:17 (Staphylococcus epidermidis; V649I)
Km [7]: 3020 ± 210 µM | kcat [7]: 336 ± 15.7 s⁻¹ | kcat/Km [7]: 111000 M⁻¹ s⁻¹

Staphylococcus epidermidis strain 9 lipase, wild-type (recombinant 43 kDa "Lys-303" lipase, C-terminal His-tag), SEQ ID NO:14 (Staphylococcus epidermidis)
Km [8]: 900 ± 80 µM | kcat [8]: 25.1 ± 0.6 s⁻¹ | kcat/Km [8]: 27900 M⁻¹ s⁻¹
